Measurements as given in patent publication US9512196B2, “Short-form human MD-2 as a negative regulator of toll-like receptor 4 signaling” (Cedars-Sinai Medical Center, priority 2008, dated 2016).

T1: MD-2 (Homo sapiens, UniProt Q9Y6Y9)
T1 construct: expressed in transfected cells; host or cells: HEK293
T1 sequence (Q9Y6Y9 19-160): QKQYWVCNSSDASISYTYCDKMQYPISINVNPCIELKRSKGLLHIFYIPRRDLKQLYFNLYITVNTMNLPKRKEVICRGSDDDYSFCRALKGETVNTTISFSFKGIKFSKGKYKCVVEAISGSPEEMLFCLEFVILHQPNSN

B1: MD-2s: alternatively spliced isoform of human MD-2 lacking exon 2, with D38G substitution; expressed and secreted protein sequences in Table 1 (protein, listed as Homo sapiens)
chain 1: MLPFLFFSTLFSSIFTEAQKQYWVCNSSDASISYTYCGRDLKQLYFNLYITVNTMNLPKRKEVICRGSDDDYSFCRALKGETVNTTISFSFKGIKFSKGKYKCVVEAISGSPEEMLFCLEFVILHQPNSN
chain 2: EAQKQYWVCNSSDASISYTYCGRDLKQLYFNLYITVNTMNLPKRKEVICRGSDDDYSFCRALKGETVNTTISFSFKGIKFSKGKYKCVVEAISGSPEEMLFCLEFVILHQPNSN

What was measured:
[1] = Biotin-LPS binding, immunoprecipitation from culture supernatants; settings: culture supernatants incubated with biotin-LPS, anti-Myc immunoprecipitation
Procedure: (§1) (A) HEK293 cells were transiently transfected with plasmids encoding for Flag-tagged MD-2 (lanes 1-4) in combination with either a Myc-tagged MD-2 (lanes 1 and 3) or a Myc-tagged MD-2s (lanes 2 and 4) expressing plasmid. Co-immunoprecipitation experiments were then performed using an anti-Flag antibody (lanes 3-4) or an IgG isotype control antibody (lane 1-2). Samples were fractionated by SDS-PAGE and immunoblotting with an anti-Myc antibody was performed. (B) Structural analysis of MD-2. Structural features representing the TLR4 binding sites (red); the ligand contacts (dark blue); the ligand binding pocket (light blue) and the TLR4 secondary contacts (pink) are illustrated. The residues deleted in MD-2s (yellow) are also shown. (C) HEK293 cells were transiently transfected with plasmids encoding for Myc-tagged MD-2 (lanes 3 and 4) or a Myc-tagged MD-2s (lanes 5 and 6) expressing plasmid and treated with LPS-biotin as indicated. Co-immunoprecipitation experiments were then performed using an anti-Myc antibody. Samples were fractionated by SDS-PAGE and immunoblotting with an anti-biotin (upper panel) and anti-Myc antibody (lower panel) were performed.
To address this possibility, HEK293 cells were transiently transfected with plasmids encoding either MD-2 or MD-2s. Culture supernatants were then incubated with biotin-LPS and Myc-tagged proteins were immunoprecipitated.

TLR4-expressing cells = assay: Surface staining of TLR4-mCitrine HEK293T cells (flow cytometry, confocal imaging); assay type: cell-based, human; settings: myc-tagged protein transfected into TLR4-mCitrine HEK293T cells
Source text: HEK293T cells stably expressing fluorescent TLR4-mCitrine were transiently transfected with myc-tagged wild-type MD-2 or MD-2s and surface-stained with anti-myc antibody. (a) Cells analyzed by flow cytometry were gated to select single cells and the TLR4-positive population. Anti-myc staining of TLR4-mCitrine positive cells expressing MD-2 (top panel, thick line) or MD-2s (middle panel, thick line) and untransfected cells (thin line) is shown. […] Co-localization of TLR4 and MD-2 isoforms on the cell surface is visualized in yellow.
HEK293T cells were retrovirally transduced to generate a cell line stably expressing TLR4-mCitrine. TLR4-mCitrine cells in 12-well dishes were transfected with 300 ng of plasmid encoding myc-tagged MD2 or MD2S using GeneJuice lipofection reagent (Novagen) and cultured overnight. Cells were dislodged by scraping, washed once with cold PBS and incubated with a 1:50 dilution of anti-myc Alexa 647-conjugated antibody (AbD Serotec) at 4° C. for 30 minutes. Cells were washed four times with PBS for and fluorescence was assessed with an LSR II flow cytometer (BD Biosciences) running FACS Diva software (BD Biosciences). Data was processed using FlowJo software v8.6.3 (Tree Star).
TLR4-mCitrine cells were cultured on glass-bottom confocal dishes (MatTek) coated with collagen. […]

MD-2 = target: T1, MD-2; assay: Co-immunoprecipitation with Flag-tagged wild-type MD-2 in HEK293 cells; assay type: binding; settings: Myc-tagged protein with Flag-tagged MD-2, co-immunoprecipitation
Procedure: as §1, with “Samples were fractionated by SDS-PAGE and immunoblotting with an anti-biotin (upper panel) and anti-Myc antibody (lower panel) were performed.” left out
HEK 293 cells were seeded into 100 mm dishes (1.5×10^6) 24 h prior to transfection. […] For immunoblotting, primary antibodies were detected using horseradish peroxidase-conjugated secondary antibodies, followed by enhanced chemiluminescence (Amersham Biosciences). […]

Molecule | Binding of secreted protein to LPS [1] | Binding to the surface of TLR4-expressing cells (TLR4-expressing cells) | Interaction with wild-type MD-2 (MD-2)
MD-2: full-length human wild-type MD-2, co-receptor of TLR4 [reference compound] | bound readily to LPS | bind to the surface of TLR4-expressing cells | can homodimerise
B1 | interaction between secreted MD-2s and LPS was also detected | bind to the surface of TLR4-expressing cells | associates with wild-type MD-2
